Data: patent publication US20220177593A1 (CELLDEX THERAPEUTICS, published 2022)
Positions count from the first letter of the chain named. Each block holds one binder with its values, some of them ahead of it.

Experiments:
[1] = target: T1, human Axl expressed on the surface of cells (human, UniProt P30530 26-894); assay: flow cytometry on L cells expressing human Axl
T1 construct: whole, on cells; also called huAxl; Axl on H1299 cells
T1 sequence (looked up): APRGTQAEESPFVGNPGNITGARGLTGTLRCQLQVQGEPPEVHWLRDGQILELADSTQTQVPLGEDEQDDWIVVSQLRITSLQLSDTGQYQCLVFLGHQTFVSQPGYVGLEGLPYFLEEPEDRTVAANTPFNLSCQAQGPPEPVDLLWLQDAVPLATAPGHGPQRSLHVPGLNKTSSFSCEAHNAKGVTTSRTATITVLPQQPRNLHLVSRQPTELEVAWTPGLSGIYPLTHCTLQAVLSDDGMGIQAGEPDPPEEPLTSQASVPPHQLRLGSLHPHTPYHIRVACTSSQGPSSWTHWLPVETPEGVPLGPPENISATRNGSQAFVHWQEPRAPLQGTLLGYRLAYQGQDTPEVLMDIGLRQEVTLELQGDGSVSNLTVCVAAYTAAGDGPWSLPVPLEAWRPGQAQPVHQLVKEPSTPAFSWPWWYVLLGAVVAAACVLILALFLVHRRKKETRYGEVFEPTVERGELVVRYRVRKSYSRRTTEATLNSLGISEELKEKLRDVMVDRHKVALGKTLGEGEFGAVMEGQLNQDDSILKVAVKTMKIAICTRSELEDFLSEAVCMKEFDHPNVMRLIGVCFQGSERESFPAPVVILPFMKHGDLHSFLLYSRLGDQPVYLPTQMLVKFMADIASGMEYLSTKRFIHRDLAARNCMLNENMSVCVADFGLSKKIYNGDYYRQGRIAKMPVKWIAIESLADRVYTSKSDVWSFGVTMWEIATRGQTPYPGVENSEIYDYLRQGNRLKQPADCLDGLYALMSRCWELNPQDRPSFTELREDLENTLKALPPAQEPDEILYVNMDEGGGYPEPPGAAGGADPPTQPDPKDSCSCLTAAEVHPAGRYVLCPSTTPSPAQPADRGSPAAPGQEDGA
Procedure: (§1) The ability of anti-Axl human antibodies to bind to Axl on cells expressing human Axl on their surface was investigated by flow cytometry as follows: Purified antibodies were incubated with either L cells expressing human Axl on their surface or H1299 cells at room temperature on a plate shaker. After 20 minutes, the cells were washed with PBS containing 0.1% BSA and 0.05% NaN₃ (PBA), and the bound antibodies were detected by incubating the cells with a phycoerythrin (PE)-labeled goat anti-human IgG Fc-specific probe. The excess probe was washed from the cells with PBA and the cell-associated fluorescence was determined by analysis using a FACSCanto II™ instrument (BD Biosciences, NJ, USA) according to the manufacturer's directions.

[2] = target: T2, recombinant human Axl-msFc (human, UniProt P30530 26-449, limits assumed); assay: ELISA, plates coated with recombinant human Axl-msFc
T2 construct: also called soluble human Axl-msFc; huAxl; not shown: mouse Fc (msFc)
T2 sequence (looked up): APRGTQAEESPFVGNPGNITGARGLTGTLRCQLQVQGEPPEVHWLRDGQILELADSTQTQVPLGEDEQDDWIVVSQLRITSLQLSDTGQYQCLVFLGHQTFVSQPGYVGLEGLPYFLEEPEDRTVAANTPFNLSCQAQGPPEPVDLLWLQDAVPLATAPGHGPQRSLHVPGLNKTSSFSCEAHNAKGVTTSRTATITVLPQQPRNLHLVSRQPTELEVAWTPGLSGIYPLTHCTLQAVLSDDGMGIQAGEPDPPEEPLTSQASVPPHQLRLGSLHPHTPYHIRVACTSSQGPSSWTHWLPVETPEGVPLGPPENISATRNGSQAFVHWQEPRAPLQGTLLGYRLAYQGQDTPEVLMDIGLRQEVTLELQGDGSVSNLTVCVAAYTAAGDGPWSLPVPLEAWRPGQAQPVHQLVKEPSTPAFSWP
Procedure: Binding of Ab301 and four humanized antibody subclones to human Axl was determined by ELISA using the following protocol: Microtiter plates were coated with recombinant human Axl-msFc, in phosphate-buffered saline (PBS), and then blocked with 5% bovine serum albumin (BSA) in PBS. Protein A purified human monoclonal antibodies and an isotype control were added at various concentrations and incubated at 37° C. The plates were washed with PBS/Tween and then incubated with a goat-anti-human IgG Fc-specific polyclonal reagent conjugated to horseradish peroxidase (HRP) at 37° C. After washing, the plates were developed with HRP substrate, and analyzed at OD 450-650 using a microtiter plate reader.

[3] = target: T3, Domain 1 (Ig-like domain 1) of the human Axl extracellular domain (human, UniProt P30530 34-137); assay: ELISA on purified Axl domains coated on plates, Ab301 at 5 ug/mL
T3 construct: The tag is not described; also called D1; Domain 1 of the Axl-ECD alone
Procedure: (§2) Human Axl domains (D1-D4) of the Axl extracellular domain (Axl-ECD) were expressed in Exi293 cells, purified by nickel affinity chromatography and buffer exchanged to PBS. […] Ab301 was added at 5 μg/mL for 1 hour at room temperature, washed, and subsequently incubated with an HRP- conjugated goat anti-human antibody (Jackson Immunoresearch). Plates were washed and incubated with TMB (Pierce Biotechnology).

[4] = target: T4, purified extracellular domain of human Axl (human, UniProt P30530 26-451); assay: as above
T4 construct: extracellular domain; also called human Axl-ECD; Axl-ECD
T4 sequence (looked up): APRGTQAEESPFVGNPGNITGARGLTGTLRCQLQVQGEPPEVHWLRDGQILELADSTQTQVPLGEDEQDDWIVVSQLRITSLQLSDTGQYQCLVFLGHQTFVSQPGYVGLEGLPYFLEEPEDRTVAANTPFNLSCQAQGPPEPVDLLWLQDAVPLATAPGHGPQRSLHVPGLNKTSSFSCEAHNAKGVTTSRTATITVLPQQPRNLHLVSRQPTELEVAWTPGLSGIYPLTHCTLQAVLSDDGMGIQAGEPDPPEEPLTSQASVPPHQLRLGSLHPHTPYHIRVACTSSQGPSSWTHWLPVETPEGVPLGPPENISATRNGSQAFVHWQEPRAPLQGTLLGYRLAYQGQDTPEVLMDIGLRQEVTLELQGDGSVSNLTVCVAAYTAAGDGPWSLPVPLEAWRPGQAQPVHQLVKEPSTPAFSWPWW
Procedure: as §2

[5] = target: T5, purified extracellular domain of human MerTK (human, UniProt Q12866 21-505); assay: ELISA, plates coated with 100 ng purified extracellular domain, titration of Ab301
T5 construct: extracellular domain; also called human MerTK-ECD
T5 sequence (looked up): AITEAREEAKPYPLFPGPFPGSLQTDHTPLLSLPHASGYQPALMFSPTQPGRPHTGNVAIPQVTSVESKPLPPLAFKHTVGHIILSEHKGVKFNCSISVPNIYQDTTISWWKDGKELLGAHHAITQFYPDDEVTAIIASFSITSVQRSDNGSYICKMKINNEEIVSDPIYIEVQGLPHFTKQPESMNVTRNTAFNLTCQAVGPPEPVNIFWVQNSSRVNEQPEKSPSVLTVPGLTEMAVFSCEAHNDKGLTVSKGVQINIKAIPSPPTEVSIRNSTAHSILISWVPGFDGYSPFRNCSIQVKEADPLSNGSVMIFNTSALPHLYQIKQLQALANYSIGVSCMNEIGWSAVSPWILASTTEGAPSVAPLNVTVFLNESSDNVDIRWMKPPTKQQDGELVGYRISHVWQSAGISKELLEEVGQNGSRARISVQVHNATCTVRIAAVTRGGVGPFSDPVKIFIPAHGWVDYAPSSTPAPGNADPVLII
Procedure: Binding of Ab301 to human Axl extracellular domain and its lack of binding to human MerTK extracellular domain was determined using the following protocol: Nunc MaxiSorb™ plates (Thermo Fisher Scientific) were coated with 100 ng of the purified extracellular domain of human Axl or human MerTK in […] borate buffer, overnight at 4° C. Plates were washed and blocked for 1 hour at room temperature with Tris-buffered saline (TBS) with 1% BSA. A titration of Ab301 was added to the coated plates for 1 hour at room temperature, followed by washing and incubation with an HRP-conjugated goat anti-human antibody (Jackson Immunoresearch) for 1 hour at room temperature. Washed plates were incubated with 3,3′,5,5′-Tetramethylbenzidine (TMB) substrate (Thermo Fisher Scientific) and read using a Biotek® plate reader. Data are plotted as the optical density at 450 nm (Abs450) as a function of the log-transformed molar concentration of Ab301, and fit to a 4-parameter binding curve using GraphPad Prism™.

[6] = target: T1, human Axl expressed on the surface of …; assay: flow cytometry on H1299 cells
Procedure: as §1

B1: Ab301 (antibody, human IgG1, V domains shown)
VH: EVKLEASGGGLVQPGMSVKLSCTTSGFTFSDYWMEWVRQAPGKGLEWVAEIRNKVNNYATYYGKSVKGRFTISRDDSKSIVYLQMNSIRSEDTGIYYCNTLRLFAYWGQGTLVTVSA
VL: DIVMTQAPLSISVTPGESPSMSCRSSKSLLHRNGITYVYWYLQKPGKSPQLLIYRMSTLASGVPDRFSGSGSETDFTLKINKVEAEDVGIYYCGQLLENPYTFGAGTRLEIK
notes: also called anti-Axl antibody Ab301
binding result [1]: binds | binding result [2]: binds | binding result [3]: binds | binding result [4]: binds | binding result [5]: no binding

B2: Ab302 (antibody, V domains shown)
VH: EVQLVESGGGLVKPGGSLKLSCAASGFTFSDYWMEWVRQAPGKGLEWVAEIRNKVNNYATYYGKSVKGRFTISRDDSKNTLYLQMNSLKTEDTAVYYCNTLRLFAYWGQGTLVTVSS
VL: DIQMTQSPSSLSASVGDRVTITCRSSKSLLHRQGITYVYWYQQKPGKVPKLLIYRMSTLASGVPSRFSGSGSGTDFTLTISSLQPEDVATYYCGQLLENPYTFGQGTKLEIK
notes: Humanized
binding result [6]: binds | binding result [2]: binds

Now from value to binder:

binding result [6]: binds | binding result [2]: binds
B3: Ab305 (antibody, V domains shown)
VH: B2 VH with K13Q, G16R, K19R, A23T, A49G, N79S, T80I, L81A, S117A
VL: B2 VL
notes: Humanized

binding result [6]: binds | binding result [2]: binds
B4: Ab304 (antibody, V domains shown)
VH: B2 VH with K13Q, K19R, A49G, D76E, T80S, L112T
VL: B2 VL
notes: Humanized

binding result [6]: binds | binding result [2]: binds
B5: Ab303 (antibody, V domains shown)
VH: B2 VH with L11V, K13Q, G16R, K19R, D76N, K89R, T90A
VL: B2 VL
notes: Humanized
